Results on 22 molecules are retold here after patent US20210061914A1 (published 2021).

To fix the notation:
B1: scFv G8-P2C11 (scFv, V domains shown)
VH: QVQLVQSGAEVKKPGASVKVSCKASGYTFTSYAMNWVRQAPGQGLEWMGWINPNSGGTNYAQKFQGRVTMTRDTSTSTVYMELSSLRSEDTAVYYCAKDPFWSGHYYYYGMDVWGQGTTVTVSS
VL: not shown
notes: scFv
B2: scFv R3G8-P5G08 (scFv, V domains shown)
VH: QVQLVQSGAEVKKPGASVKVSCKASGYTFTSNYMHWVRQAPGQGLEWMGWMNPNSGNTGYAQKFQGRVTMTRDTSTSTVYMELSSLRSEDTAVYYCARGLYGDYFLYYGMDVWGQGTTVTVSS
VL: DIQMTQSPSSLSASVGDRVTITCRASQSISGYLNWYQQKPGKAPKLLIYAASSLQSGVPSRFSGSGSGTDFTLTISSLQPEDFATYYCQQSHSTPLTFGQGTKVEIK
notes: scFv
B3: scFv G8-P1H08 (scFv, V domains shown)
VH: QVQLVQSGAEVKKPGASVKVSCKASGYTFGNYFMHWVRQAPGQGLEWMGMVNPSGGSETFAQKFQGRVTMTRDTSTSTVYMELSSLRSEDTAVYYCAASTWIQPFDYWGQGTLVTVSS
VL: DIQMTQSPSSLSASVGDRVTITCRASQGINSYLAWYQQKPGKAPKLLIYDASNLETGVPSRFSGSGSGTDFTLTISSLQPEDFATYYCQQHNSYPPTFGQGTKLEIK
notes: scFv
B4: scFv G8-P1C01 (scFv, V domains shown)
VH: QVQLVQSGAEVKKPGASVKVSCKASGGTFSSHAISWVRQAPGQGLEWMGVIIPSGGTSYTQKFQGRVTMTRDTSTSTVYMELSSLRSEDTAVYYCARGDYYDSSGYYFPVYFDYWGQGTLVTVSS
VL: DIQMTQSPSSLSASVGDRVTITCRASQNIYTYLNWYQQKPGKAPKLLIYDASNLETGVPSRFSGSGSGTDFTLTISSLQPEDFATYYCQQANGFPLTFGGGTKVEIK
notes: scFv
B5: scFv G8-P2E06 (scFv, V domains shown)
VH: QVQLVQSGAEVKKPGASVKVSCKASGYTLTTYYMHWVRQAPGQGLEWMGWINPNSGGTNYAQKFQGRVTMTRDTSTSTVYMELSSLRSEDTAVYYCARAVYYDFWSGPFDYWGQGTLVTVSS
VL: DIQMTQSPSSLSASVGDRVTITCRASQGISNSLAWYQQKPGKAPKLLIYAASSLQSGVPSRFSGSGSGTDFTLTISSLQPEDFATYYCQQANSFPWTFGQGTKLEIK
notes: scFv
B6: scFv G8-P2B05 (scFv, V domains shown)
VH: EVQLLESGGGLVQPGGSLRLSCAASGFDFSIYSMNWVRQAPGKGLEWVSAISGSGGSTYYADSVKGRFTISRDNSKNTLYLQMNSLRAEDTAVYYCASNGNYYGSGSYYNYWGQGTLVTVSS
VL: DIQMTQSPSSLSASVGDRVTITCRASQSISRWLAWYQQKPGKAPKLLIYAASSLQSGVPSRFSGSGSGTDFTLTISSLQPEDFATYYCQQYSTYPITIGQGTKVEIK
notes: scFv
B7: scFv R3G8-P2C10 (scFv, V domains shown)
VH: QVQLVQSGAEVKKPGASVKVSCKASGYTFTSYYMHWVRQAPGQGLEWMGWINPYSGGTNYAQKFQGRVTMTRDTSTSTVYMELSSLRSEDTAVYYCAKGGIYYGSGSYPSWGQGTLVTVSS
VL: DIQMTQSPSSLSASVGDRVTITCRASQDVSTWLAWYQQKPGKAPKLLIYAASSLQSGVPSRFSGSGSGTDFTLTISSLQPEDFATYYCQQSHSTPQTFGQGTKVEIK
notes: scFv
B8: scFv R3G8-P4F05 (scFv, V domains shown)
VH: QVQLVQSGAEVKKPGASVKVSCKASGYTFSNMYLHWVRQAPGQGLEWMGWINPNTGDTNYAQTFQGRVTMTRDTSTSTVYMELSSLRSEDTAVYYCARGLYGDYFLYYGMDVWGQGTKVTVSS
VL: DIQMTQSPSSLSASVGDRVTITCRASQGISNYLAWYQQKPGKAPKLLIYAASTLQSGVPSRFSGSGSGTDFTLTISSLQPEDFATYYCQQSYSTPLTFGGGTKVEIK
notes: scFv
B9: scFv R3G8-P2E04 (scFv, V domains shown)
VH: QVQLVQSGAEVKKPGSSVKVSCKASGGTFSSYGVSWVRQAPGQGLEWMGWISPYSGNTDYAQKFQGRVTITADESTSTAYMELSSLRSEDTAVYYCARGLYYMDVWGKGTTVTVSS
VL: DIQMTQSPSSLSASVGDRVTITCRASQSISSWLAWYQQKPGKAPKLLIYDASNLETGVPSRFSGSGSGTDFTLTISSLQPEDFATYYCQQSYSTPLTFGGGTKLEIK
notes: scFv
B10: scFv R3G8-P5C03 (scFv, V domains shown)
VH: QVQLVQSGAEVKKPGASVKVSCKASGYTFTSYYMHWVRQAPGQGLEWMGWMNPNSGNTGYAQKFQGRVTMTRDTSTSTVYMELSSLRSEDTAVYYCARGLLGFGEFLTYGMDVWGQGTLVTVSS
VL: DIQMTQSPSSLSASVGDRVTITCRASQGISNWLAWYQQKPGKAPKLLIYAASTLQSGVPSRFSGSGSGTDFTLTISSLQPEDFATYYCQQTYSTPWTFGQGTKLEIK
notes: scFv
B11: scFv R3G8-P5F02 (scFv, V domains shown)
VH: QVQLVQSGAEVKKPGASVKVSCKASGYTFTGYYIHWVRQAPGQGLEWMGVINPSGGSTTYAQKLQGRVTMTRDTSTSTVYMELSSLRSEDTAVYYCARDRDSSWTYYYYGMDVWGQGTTVTVSS
VL: EIVMTQSPATLSVSPGERATLSCRASQSVGNSLAWYQQKPGQAPRLLIYGASTRATGIPARFSGSGSGTEFTLTISSLQSEDFAVYYCQQYGSSPYTFGQGTKVEIK
notes: scFv
B12: scFv G5R4-P4A07 (scFv, V domains shown)
VH: QVQLVQSGAEVKKPGASVKVSCKASGYTFTSYYMHWVRQAPGQGLEWMGWMNPNSGNTGYAQKFQGRVTMTRDTSTSTVYMELSSLRSEDTAVYYCARELPIGYGMDVWGQGTTVTVSS
VL: not shown
notes: scFv
B13: scFv G5R4-P2B10 (scFv, V domains shown)
VH: QVQLVQSGAEVKKPGASVKVSCKASGGTFSSYAISWVRQAPGQGLEWMGWMNPDSGSTGYAQRFQGRVTMTRDTSTSTVYMELSSLRSEDTAVYYCARGHSSGWYYYYGMDVWGQGTTVTVSS
VL: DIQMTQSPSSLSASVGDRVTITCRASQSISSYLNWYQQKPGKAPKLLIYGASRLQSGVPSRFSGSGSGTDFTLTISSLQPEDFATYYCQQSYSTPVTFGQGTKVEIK
notes: scFv
B14: scFv G5R4-P4B01 (scFv, V domains shown)
VH: QVQLVQSGAEVKKPGSSVKVSCKASGGTFSSYAISWVRQAPGQGLEWMGGIIPIVGTANYAQKFQGRVTITADESTSTAYMELSSLRSEDTAVYYCARGGSYYYYGMDVWGQGTTVTVSS
VL: not shown
notes: scFv
B15: scFv G5-P4E04 (scFv, V domains shown)
VH: QVQLVQSGAEVKKPGASVKVSCKASGGTFSSYGISWVRQAPGQGLEWMGWINPNSGVTKYAQKFQGRVTMTRDTSTSTVYMELSSLRSEDTAVYYCARGDYYFDYWGQGTLVTVSS
VL: DIQMTQSPSSLSASVGDRVTITCRASQSISRFLNWYQQKPGKAPKLLIYGASRPQSGVPSRFSGSGSGTDFTLTISSLQPEDFATYYCQQSYSTPLTFGQGTKVEIK
notes: scFv
B16: scFv G5-P1B12 (scFv, V domains shown)
VH: EVQLLESGGGLVQPGGSLRLSCAASGFTFSNSDMNWVRQAPGKGLEWVASISSSGGYINYADSVKGRFTISRDNSKNTLYLQMNSLRAEDTAVYYCAKVNWNDGPYFDYWGQGTLVTVSS
VL: DIQMTQSPSSLSASVGDRVTITCRASQSISSWLAWYQQKPGKAPKLLIYAASSLQSGVPSRFSGSGSGTDFTLTISSLQPEDFATYYCQQANSFPLTFGGGTKVEIK
notes: scFv
B17: scFv G5-P1-E05 (scFv, V domains shown)
VH: QVQLVQSGAEVKKPGASVKVSCKASGYTFTSYNMHWVRQAPGQGLEWMGWINPNSGGTNYAQKFQGRVTMTRDTSTSTVYMELSSLRSEDTAVYYCARDVMDVWGQGTTVTVSS
VL: DIQMTQSPSSLSASVGDRVTITCRASQGISNYLNWYQQKPGKAPKLLIYYASSLQSGVPSRFSGSGSGTDFTLTISSLQPEDFATYYCQQTYMMPYTFGQGTKVEIK
notes: scFv
B18: scFv G5-P1C12 (scFv, V domains shown)
VH: QVQLVQSGAEVKKPGSSVKVSCKASGGTFSNFGVSWLRQAPGQGLEWMGGIIPILGTANYAQKFQGRVTITADESTSTAYMELSSLRSEDTAVYYCATPTNSGYYGPYYYYGMDVWGQGTTVTVSS
VL: DIQMTQSPSSLSASVGDRVTITCRASQSISSWLAWYQQKPGKAPKLLIYAASTLQSGVPSRFSGSGSGTDFTLTISSLQPEDFATYYCQQSYSIPLTFGGGTKVEIK
notes: scFv
B19: scFv G5R4-P1H11 (scFv, V domains shown)
VH: EVQLLESGGGLVKPGGSLRLSCAASGFTFSDYYMSWVRQAPGKGLEWVSYISSSSSYTNYADSVKGRFTISRDDSKNTLYLQMNSLKTEDTAVYYCARDVVANFDYWGQGTLVTVSS
VL: EIVMTQSPATLSVSPGERATLSCRASQSVSSNLAWYQQKPGQAPRLLIYAASARASGIPARFSGSGSGTEFTLTISSLQSEDFAVYYCQQYGSWPRTFGQGTKVEIK
notes: scFv
B20: scFv G5R4-P1D06 (scFv, V domains shown)
VH: QVQLVQSGAEVKKPGASVKVSCKASGYTFTSYDINWVRQAPGQGLEWMGWINPNSGDTKYSQKFQGRVTMTRDTSTSTVYMELSSLRSEDTAVYYCARDGTRYYGMDVWGQGTTVTVSS
VL: not shown
notes: scFv
B21: scFv G5R4-P2H8 (scFv, V domains shown)
VH: EVQLLESGGGLVQPGGSLRLSCAASGFTFTSYSMHWVRQAPGKGLEWVSSITSFTNTMYYADSVKGRFTISRDNSKNTLYLQMNSLRAEDTAVYYCAKDLGSYGGYYWGQGTLVTVSS
VL: not shown
notes: scFv
B22: scFv G5R4-P3G05 (scFv, V domains shown)
VH: QVQLVQSGAEVKKPGASVKVSCKASGYTFTNYYMHWVRQAPGQGLEWMGIINPSGGSTSYAQKFQGRVTMTRDTSTSTVYMELSSLRSEDTAVYYCARSWFGGFNYHYYGMDVWGQGTTVTVSS
VL: DIQMTQSPSSLSASVGDRVTITCQASEDISNHLNWYQQKPGKAPKLLIYDALSLQSGVPSRFSGSGSGTDFTLTISSLQPEDFATYYCQQANSFPFTFGPGTKVDIK
notes: scFv

The target in the first test is HLA-A*02:01_… (HLA-PEPTIDE target G8), soluble (human, enzymatically biotinylated (BirA) for screening and BLI). Put plainly: scFv PPE ELISA. A general note: In an ELISA, binding on a coated surface is turned into a signal by an enzyme label.
With B1, the “fold selective binding, target pHLA vs minipool of negative control pHLAs” value (from here on “fold selective binding, target pHLA”) was no less than 3 fold.
Same read-out and setting: with B2 the figure was no less than 3 fold; with B3, no less than 3 fold; with B4, no less than 3 fold.
Consider B5, for which the “fold selective binding, target pHLA” value was no less than 3 fold.
On the same count and under the same terms, as for B6, the figure is no less than 3 fold.
On the same count and under the same terms, with B7 the figure was no less than 3 fold; with B8, no less than 3 fold.
For B9, the “fold selective binding, target pHLA” value was no less than 3 fold.
On to B10, for which the “fold selective binding, target pHLA” value was no less than 3 fold.
Still for that read-out and setting: as for B11, the figure is no less than 3 fold.

A further test deals with HLA-B*35:01_… (HLA-PEPTIDE target G5), soluble (human, enzymatically biotinylated (BirA)). Put plainly: scFv PPE ELISA.
As to B12, the “fold selective binding, target pHLA” value is no less than 3 fold.
On the same count and under the same terms, as for B13, the figure is no less than 3 fold; as for B14, no less than 3 fold; as for B15, no less than 3 fold.
Regarding B16, the “fold selective binding, target pHLA” value was no less than 3 fold.
The same measure, in the same setting: as for B17, the figure is no less than 3 fold; as for B18, no less than 3 fold; as for B19, no less than 3 fold.
On the same count and under the same terms, with B20 the figure was no less than 3 fold; with B21, no less than 3 fold.
On the same count and under the same terms, as for B22, the figure is no less than 3 fold.
